Test results: patent US20130330359A1 (AbbVie / Abbott, published 2013)
Substitutions are numbered along the chain they refer to. Blank lines part the entries; values can stand above or below the binder they belong to.

What was measured:
[1] = molecular target: T1, carrier free RGMa (R&D Systems) (UniProt Q96B86 48-422, limits assumed); assay: direct EIA: carrier-free RGMa coated at 0.5 ug/mL; supernatant diluted 1:125; goat anti-mouse IgG-HRPO
T1 construct: also called RGMa-CF
T1 sequence (looked up): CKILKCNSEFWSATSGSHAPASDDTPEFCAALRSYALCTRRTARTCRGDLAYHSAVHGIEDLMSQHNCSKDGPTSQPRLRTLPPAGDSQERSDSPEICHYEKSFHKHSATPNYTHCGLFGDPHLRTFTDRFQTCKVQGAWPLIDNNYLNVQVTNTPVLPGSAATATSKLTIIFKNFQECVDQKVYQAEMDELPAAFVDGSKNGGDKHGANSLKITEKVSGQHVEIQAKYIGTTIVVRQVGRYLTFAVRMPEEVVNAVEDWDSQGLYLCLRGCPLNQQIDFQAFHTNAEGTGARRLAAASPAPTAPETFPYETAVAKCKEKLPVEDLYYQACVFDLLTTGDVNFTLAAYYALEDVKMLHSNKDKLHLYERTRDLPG
Procedure: Clones were then tested for cross-reactivity with RGMa and RGMb by EIA. Carrier free RGMa, RGMb, or RGMc (R&D Systems) was coated on the solid phase of micro-titer EIA plates at 0.5 ug/mL. After the antigen had been coated on the solid phase, it was removed and any open binding sites on the plates were blocked using fish gel block solution. The wells were washed with distilled water following this incubation. Cell supernatants and control reagents were added to the blocked plates and allowed to incubate at room temperature for at least one hour. The negative control was a purified mouse mAb from a different antigen system. The positive control for RGMa, RGMb, & RGMc was a goat anti-RGMa, RGMb, or RGMc polyclonal antibody (R&D Systems). Following this incubation, the solutions were removed from the plates and they were washed with distilled water. Donkey anti-Goat IgG-HRPO diluted to approximately 200 ng/mL in block solution was added to the plates with the positive control test samples and goat anti-mouse IgG-HRPO (Jackson Immunoresearch) diluted to approximately 200 ng/mL in block solution was added to the plates with the fusion #1 test samples. All plates were allowed to incubate for 30 minutes at room temperature. The plates were washed with distilled water and o-phenylenediamine substrate was used as the chromogen to generate signal. Plates were read at 492 nm and the results were analyzed.

[2] = molecular target: T2, RGMc antigen: amino acids 33-391 of RGMc followed by human Fc (human, UniProt Q6ZVN8 33-391); assay: chemiluminescence immunoassay: supernatant mAb captured on sheep anti-mouse IgG Fc, RGMc-huFc at 200 ng/mL, acridinium-labeled goat anti-RGMc detection
T2 construct: also called RGMc-huFc; RGMc-Fc; not shown: human Fc
T2 sequence: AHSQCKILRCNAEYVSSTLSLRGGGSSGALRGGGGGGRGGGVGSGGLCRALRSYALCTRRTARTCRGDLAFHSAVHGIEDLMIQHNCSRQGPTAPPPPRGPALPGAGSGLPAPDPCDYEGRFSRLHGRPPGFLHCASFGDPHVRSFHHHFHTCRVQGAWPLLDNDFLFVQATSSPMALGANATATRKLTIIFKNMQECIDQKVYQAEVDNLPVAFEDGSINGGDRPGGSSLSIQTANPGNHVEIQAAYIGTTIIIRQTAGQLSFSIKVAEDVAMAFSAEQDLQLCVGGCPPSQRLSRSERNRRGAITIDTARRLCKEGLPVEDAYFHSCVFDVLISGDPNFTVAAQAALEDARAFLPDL
Procedure: Cell supernatant samples were analyzed for anti-RGMc antibodies by Chemiluminescence immunoassay (CIA). Sheep anti-mouse IgG Fc (Jackson Immunoresearch, West Grove, Pa.) was coated on 96 well micro-titer CIA plates (NUNC) at 5 ug/mL. After the capture reagent had been coated on the solid phase, it was removed and any open binding sites on the plates were blocked using a Fish gel/PBS (2% v/v) block solution. The wells were washed with distilled water and cell supernatants were added to the blocked plates and allowed to incubate at room temperature for at least one hour. The anti-mouse IgG Fc captures the anti-RGMc mouse antibody from the supernatant. Following the incubation, the supernatants were washed off using distilled water. A mouse/human IgG chimeric antibody (Abbott Laboratories) diluted in fish gel block to 5 ug/ml was added to each well and incubated for approximately 30 minutes at room temperature to block any captured mAbs that are specific for human IgG Fc portion of the immunogen. Following the incubation, the human IgG blocking solution was washed off using distilled water. RGMc-huFc antigen was then added to the plates at 200 ng/mL in fish gel block and incubated for 30 minutes at room temperature. Following this incubation, the antigen was washed from the plates using distilled water. Acridinium labeled goat anti-RGMc polyclonal antibody (R&D Systems, Minneapolis, Minn.) was diluted to 200 ng/ml in fish gel block, then added to the plates and allowed to incubate for 30 minutes at room temperature. The plates were washed with distilled water then processed on the Microbeta Jet instrument (Perkin Elmer, Waltham, Mass.). The Microbeta Jet adds Architect© Pre-Trigger and Trigger solutions (Abbott Laboratories). The plates are then read for flash chemiluminescence in luminescent counts per second (LCPS). […] The positive control (PC) used in this assay was spent medium from unfused splenocytes harvested from mouse #814 that were cultured for 7 to 10 days at 37° C.

absorbance at 492 nm [1]: 0.08 | LCPS [2]: 6610 LCPS
B1: 1A-2860-475 (antibody, V domains shown)
VH: DVLLQESGPDLVKPSQSLSLTCTVTGYSISSGYSWHWIRQFPGNKLEWMAYIHYTGNTNYNPSLKSRISITRDTSKNQFFLHLNSVTTEDTATYYCALFGLSGFWGQGTLVTVSA
VL: DVLMTQTPLSLPVSLGDQASISCRSSQTIVHSNGNTYLDWYLQKPGQSPKVLIYKVSNRFSGVPDRFSGSGSGTDFTLKISRVEAEDLGVYFCLQGSHVPWTFGGGTQLEIKR
notes: The parent line 1A-2860 and subclone 1A-2860-177 used in the assays are treated here as the same antibody; also called 1A-2860-177

absorbance at 492 nm [1]: 0.09 | LCPS [2]: 5260 LCPS
B2: 1B-3363-715 (antibody, V domains shown)
VH: DVQLQESGPDLVKPSQSLSLTCTVTGYSITSGYSWHWIRQFPGNKLEWMGYIHYSGNTDYNPSLKSRISFTRDTSKNQFFLQLNSVTTEDTATYFCAIGTGPWGQGTTLTVSS
VL: B1 VL with T28N, N35H, D39E, V51L, F92Y, L94F, Q108K
notes: The parent line 1B-3363 and subclone 1B-3363-502 used in the assays are treated here as the same antibody; also called 1B-3363-502

absorbance at 492 nm [1]: 0.07 | LCPS [2]: 2500 LCPS
B3: 1A-2989-187 (antibody, V domains shown)
VH: EVQLQQSGAELVRSGASVKLSCTASGFNIRDFYIHWVKQRPEQGLEWLGWIDPENGDIEYAPKFQGKATMTADTSSNTAYLQLNSLTSEDTALYYCNGNGYYLDYWGQGTTLTVSS
VL: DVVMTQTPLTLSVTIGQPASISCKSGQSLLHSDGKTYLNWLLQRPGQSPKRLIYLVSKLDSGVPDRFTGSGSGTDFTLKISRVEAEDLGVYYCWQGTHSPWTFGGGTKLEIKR
